Experimental findings from PMC10397247 are described below.

Experiment [1] concerns the target T1, 4H3817-bN.
T1 chain: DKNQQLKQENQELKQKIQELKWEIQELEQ
In words: two-hybrid library CCNG1.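 Also: natural log of median RNA to DNA barcode read ratio; higher means stronger binding.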

The target in experiment [2] is T2, 4H1804-bN.
T2 chain: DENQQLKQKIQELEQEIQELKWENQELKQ
Briefly: two-hybrid library CCNG1.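 Also: natural log of median RNA to DNA barcode read ratio; higher means stronger binding.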

Experiment [3] has as its target T3, 4H3628-bN.
T3 chain: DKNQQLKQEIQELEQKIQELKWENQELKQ
Briefly: two-hybrid library CCNG1.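 Also: natural log of median RNA to DNA barcode read ratio; higher means stronger binding.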

Experiment [4] addresses T4, 4H1710-bN.
T4 chain: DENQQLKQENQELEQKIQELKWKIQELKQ
In words: two-hybrid library CCNG1.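 Also: natural log of median RNA to DNA barcode read ratio; higher means stronger binding.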

The target of experiment [5] is T5, 4H3613-bN.
T5 chain: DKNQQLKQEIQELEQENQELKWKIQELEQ
In words: two-hybrid library CCNG1.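 Also: natural log of median RNA to DNA barcode read ratio; higher means stronger binding.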

Experiment [6] concerns the target T6, 4H850-bN.
T6 chain: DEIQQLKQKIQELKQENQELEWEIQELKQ
In words: two-hybrid library CCNG1.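 Also: natural log of median RNA to DNA barcode read ratio; higher means stronger binding.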

Experiment [7] concerns the target T7, 4H3926-bA.
T7 chain: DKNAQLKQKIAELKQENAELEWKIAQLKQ
In words: two-hybrid library CCNG1.

Experiment [8] deals with T8, 4H906-bN.
T8 chain: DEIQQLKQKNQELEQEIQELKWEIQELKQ
Briefly: two-hybrid library CCNG1.

Experiment [9] has as its target T9, 4H3638-bN.
T9 chain: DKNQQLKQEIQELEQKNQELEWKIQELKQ
In words: two-hybrid library CCNG1.

Experiment [10] deals with T10, 4H3497-bN.
T10 chain: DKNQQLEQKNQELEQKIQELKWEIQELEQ
In words: two-hybrid library CCNG1.

Experiment [11] deals with T11, 4H1899-bN.
T11 chain: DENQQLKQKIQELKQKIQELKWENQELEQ
Briefly: two-hybrid library CCNG1.

For experiment [12], the target named is T12, 4H3277-bN.
T12 chain: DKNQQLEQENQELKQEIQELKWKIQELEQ
In words: two-hybrid library CCNG1.

In experiment [13] the target is T13, 4H1985-bN.
T13 chain: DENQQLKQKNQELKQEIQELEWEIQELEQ
In words: two-hybrid library CCNG1.

Experiment [14] has as its target T14, 4H3974-bN.
T14 chain: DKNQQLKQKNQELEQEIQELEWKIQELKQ
In words: two-hybrid library CCNG1.

Experiment [15] has as its target T15, 4H3858-bN.
T15 chain: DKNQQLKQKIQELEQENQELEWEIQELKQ
Briefly: two-hybrid library CCNG1.

Experiment [16] concerns the target T16, 4H3175-bN.
T16 chain: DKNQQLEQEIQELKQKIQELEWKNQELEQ
In words: two-hybrid library CCNG1.

Experiment [17] deals with T17, 4H591-bN.
T17 chain: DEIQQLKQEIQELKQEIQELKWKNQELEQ
In words: two-hybrid library CCNG1.

Experiment [18] addresses T18, 4H3172-bN.
T18 chain: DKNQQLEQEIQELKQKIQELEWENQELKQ
In words: two-hybrid library CCNG1.

In experiment [19] the target is T19, 4H570-bN.
T19 chain: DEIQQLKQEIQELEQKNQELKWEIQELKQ
In words: two-hybrid library CCNG1.

For experiment [20], the target named is T20, 4H3926-bN.
T20 chain: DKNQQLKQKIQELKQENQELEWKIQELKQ
Briefly: two-hybrid library CCNG1.

In experiment [21] the target is T21, 4H3298-bN.
T21 chain: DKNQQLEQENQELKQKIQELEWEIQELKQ
Briefly: two-hybrid library CCNG1.

In experiment [22] the target is T22, 4H3631-bN.
T22 chain: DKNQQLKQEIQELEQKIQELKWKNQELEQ
Briefly: two-hybrid library CCNG1.

Experiment [23] addresses T23, P3bH1.
T23 chain: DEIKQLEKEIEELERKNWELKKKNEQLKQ
In words: two-hybrid library CCNG1.

For experiment [24], the target named is T24, 4H3129-bN.
T24 chain: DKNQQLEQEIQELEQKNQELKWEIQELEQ
Briefly: two-hybrid library CCNG1.

For experiment [25], the target named is T25, 4H3162-bN.
T25 chain: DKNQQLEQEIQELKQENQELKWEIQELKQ
Briefly: two-hybrid library CCNG1.

The target of experiment [26] is T26, 4H3462-bN.
T26 chain: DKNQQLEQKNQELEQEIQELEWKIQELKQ
Briefly: two-hybrid library CCNG1.

The target in experiment [27] is T27, 4H584-bN.
T27 chain: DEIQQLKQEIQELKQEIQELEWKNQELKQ
In words: two-hybrid library CCNG1.

Experiment [28] addresses T28, 4H626-bN.
T28 chain: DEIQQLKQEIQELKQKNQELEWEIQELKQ
In words: two-hybrid library CCNG1.

Experiment [29] addresses T29, 4H235-bN.
T29 chain: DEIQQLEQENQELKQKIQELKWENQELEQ
Briefly: two-hybrid library CCNG1.

Experiment [30] deals with T30, 4H3414-bN.
T30 chain: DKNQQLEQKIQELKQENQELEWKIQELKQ
Briefly: two-hybrid library CCNG1.

Experiment [31] deals with T31, 4H619-bN.
T31 chain: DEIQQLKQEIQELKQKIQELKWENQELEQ
Briefly: two-hybrid library CCNG1.

Experiment [32] addresses T32, 4H380-AA.
T32 chain: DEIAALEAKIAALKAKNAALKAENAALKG
In words: two-hybrid library CCmax. The note with it: mean of both orientations.

Experiment [33] addresses T33, 4H2621-AA.
T33 chain: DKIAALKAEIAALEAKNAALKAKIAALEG
Briefly: two-hybrid library CCmax. The note with it: mean of both orientations.

The target of experiment [34] is T34, 4H2774-AA.
T34 chain: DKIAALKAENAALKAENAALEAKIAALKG
In words: two-hybrid library CCmax. The note with it: mean of both orientations.

The target of experiment [35] is T35, 4H2903-AA.
T35 chain: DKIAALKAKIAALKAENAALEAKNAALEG
Briefly: two-hybrid library CCmax. As to conditions: mean of both orientations.

Experiment [36] deals with T36, 4H432-AA.
T36 chain: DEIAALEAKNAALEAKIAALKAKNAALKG
Briefly: two-hybrid library CCmax. As to conditions: mean of both orientations.

The target in experiment [37] is T37, 4H2604-AA.
T37 chain: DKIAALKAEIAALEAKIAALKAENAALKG
In words: two-hybrid library CCmax. As to conditions: mean of both orientations.

Experiment [38] addresses T38, 4H3049-AA.
T38 chain: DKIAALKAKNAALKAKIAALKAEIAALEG
Briefly: two-hybrid library CCmax. The note with it: mean of both orientations.

Experiment [39] addresses T39, 4H3619-AA.
T39 chain: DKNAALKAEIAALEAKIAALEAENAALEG
Briefly: two-hybrid library CCmax. As to conditions: mean of both orientations.

Experiment [40] addresses T40, 4H2580-AA.
T40 chain: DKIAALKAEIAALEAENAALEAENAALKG
Briefly: two-hybrid library CCmax. The note with it: mean of both orientations.

For experiment [41], the target named is T41, 4H3629-AA.
T41 chain: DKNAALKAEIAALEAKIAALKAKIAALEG
Briefly: two-hybrid library CCmax. The note with it: mean of both orientations.

In experiment [42] the target is T42, 4H3777-AA.
T42 chain: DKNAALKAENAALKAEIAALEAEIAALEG
Briefly: two-hybrid library CCmax. The note with it: mean of both orientations.

Experiment [43] concerns the target T43, 4H324-AA.
T43 chain: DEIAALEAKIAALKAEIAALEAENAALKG
Briefly: two-hybrid library CCmax. As to conditions: mean of both orientations.

Experiment [44] has as its target T44, 4H2760-AA.
T44 chain: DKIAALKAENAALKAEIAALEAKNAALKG
Briefly: two-hybrid library CCmax. The note with it: mean of both orientations.

In experiment [45] the target is T45, 4H341-AA.
T45 chain: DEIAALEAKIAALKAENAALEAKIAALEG
In words: two-hybrid library CCmax. The note with it: mean of both orientations.

For experiment [46], the target named is T46, 4H3094-AA.
T46 chain: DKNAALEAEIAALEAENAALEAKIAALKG
In words: two-hybrid library CCmax. As to conditions: mean of both orientations.

Experiment [47] concerns the target T47, 4H3974-AA.
T47 chain: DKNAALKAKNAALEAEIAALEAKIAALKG
In words: two-hybrid library CCmax. As to conditions: mean of both orientations.

The target in experiment [48] is T48, 4H446-AA.
T48 chain: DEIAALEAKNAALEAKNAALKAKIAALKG
In words: two-hybrid library CCmax. The note with it: mean of both orientations.

In experiment [49] the target is T49, 4H3915-AA.
T49 chain: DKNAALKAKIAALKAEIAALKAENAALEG
Briefly: two-hybrid library CCmax. As to conditions: mean of both orientations.

Experiment [50] deals with T50, 4H63-AA.
T50 chain: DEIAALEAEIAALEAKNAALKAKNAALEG
In words: two-hybrid library CCmax. As to conditions: mean of both orientations.

Experiment [51] concerns the target T51, 4H1593-AA.
T51 chain: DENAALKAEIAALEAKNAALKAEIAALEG
In words: two-hybrid library CCmax.

Experiment [52] has as its target T52, 4H249-AA.
T52 chain: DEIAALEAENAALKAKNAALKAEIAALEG
In words: two-hybrid library CCmax. As to conditions: mean of both orientations.

Experiment [53] concerns the target T53, 4H2947-AA.
T53 chain: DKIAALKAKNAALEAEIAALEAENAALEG
Briefly: two-hybrid library CCmax. The note with it: mean of both orientations.

Experiment [54] has as its target T54, 4H3449-AA.
T54 chain: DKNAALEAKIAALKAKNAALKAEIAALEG
Briefly: two-hybrid library CCmax. As to conditions: mean of both orientations.

Experiment [55] addresses T55, 4H235-AA.
T55 chain: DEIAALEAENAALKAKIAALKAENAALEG
In words: two-hybrid library CCmax. The note with it: mean of both orientations.

Experiment [56] deals with T56, 4H1878-AA.
T56 chain: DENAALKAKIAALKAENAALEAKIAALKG
In words: two-hybrid library CCmax. The note with it: mean of both orientations.

The target in experiment [57] is T57, 4H2961-AA.
T57 chain: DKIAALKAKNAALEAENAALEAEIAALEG
Briefly: two-hybrid library CCmax. The note with it: mean of both orientations.

Experiment [58] has as its target T58, P5bH1.
T58 chain: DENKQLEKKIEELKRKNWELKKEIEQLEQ
Briefly: two-hybrid library CCNG1.

The target in experiment [59] is T59, P8bH1.
T59 chain: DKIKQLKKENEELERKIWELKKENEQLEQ
Briefly: two-hybrid library CCNG1.

The target of experiment [60] is T60, P7bH1.
T60 chain: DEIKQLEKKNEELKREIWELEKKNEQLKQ
In words: two-hybrid library CCNG1.

The target in experiment [61] is T61, P9bH1.
T61 chain: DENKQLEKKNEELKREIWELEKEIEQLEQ
In words: two-hybrid library CCNG1.

For experiment [62], the target named is T62, P4bH1.
T62 chain: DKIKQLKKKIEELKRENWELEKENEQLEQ
In words: two-hybrid library CCNG1.

Experiment [63] deals with T63, P6bH1.
T63 chain: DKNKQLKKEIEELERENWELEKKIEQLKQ
In words: two-hybrid library CCNG1.

Regarding DENQQLKQENQELEQKIQELKWKIQELKQ [4H1710-bN], the interaction score in experiment [1] was 1.23; in experiment [2], -0.254; in experiment [3], 1.45; in [4], 0.191; in experiment [5], -0.41; in experiment [6] it was 0.177. The interaction score in [7] is -0.849; in experiment [8], 0.452; in experiment [9], -0.0052; in experiment [10] it was 0.701; in experiment [11] it was 0.0366; in experiment [12], 0.0226. Besides, the interaction score in experiment [13] was 1.36; in [14], 0.85; in [15] it was -0.718; in [16], -0.28; in experiment [17], -0.724; in [18], -0.194. The interaction score in [19] is 0.578; in [20] it was -0.569; in experiment [21], 0.498; in experiment [22] it was 0.993; in experiment [23] it was -2.08; in [24], -0.785. Besides, the interaction score in experiment [25] was 0.233; in experiment [26], -0.312; in [27], 0.273; in experiment [28] it was 0.722; in experiment [29], -2.91; in [30], -0.297. The molecule further came in with an interaction score in [31] of 0.707.

In the case of DENAALKAEIAALEAKNAALKAEIAALEG [4H1593-AA], the interaction score in experiment [32] was -1.5; in [33], -0.899; in experiment [34], -0.0172; in [35] it was -0.456; in experiment [36], -0.391; in experiment [37] it was 0.383. For the same molecule, the interaction score in experiment [38] was -0.661; in experiment [39], -1.38; in [40], -0.97; in experiment [41], -0.594; in experiment [42], -1.54; in experiment [43] it was -1.58. Moreover, the interaction score was -0.517 in experiment [44]; 2.13 in experiment [45]; 1.88 in experiment [46]; -1.15 in experiment [47]; -1.84 in [48]; -1.62 in experiment [49]. The interaction score is -1.97 in [50]; -1.04 in experiment [51]; -1.77 in [52]; -1.37 in experiment [53]; -1.62 in experiment [54]; 0.603 in [55]. The values for the interaction score in [56] and in experiment [57] were 2.3 and -1.89, respectively.

Regarding DEIKQLEKEIEELERKNWELKKKNEQLKQ [P3bH1], the interaction score in [58] was 1.1; in experiment [59], 0.173; in experiment [60], -0.271; in experiment [61], -0.408; in experiment [62], 1.13; in [23] it was -0.241. The molecule further yielded an interaction score in [63] of 0.419.
